Measured values from the supplement of paper PMC10567573.

B1: KLHL12 (parent)
chain: REESLPNLLQYVRMPLLTPRYITD

Variants of: B1
Test: protein stability index of a GFP-peptide fusion (GPS, HEK-293T) (PSI 1-6); higher = more stable
Conditions: c terminus: a fixed tail appended
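Also: lentivirally expressed fusions sorted by FACS into six bins by GFP to DsRed ratio, PSI derived from sequencing read proportions per bin multiplied by bin number.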

Variant	protein stability index
REESLSNLLQYVRMPLLTPRYITD [P6S]	2.31
REESLQNLLQYVRMPLLTPRYITD [P6Q]	1.91
REESLVNLLQYVRMPLLTPRYITD [P6V]	1.6
REESLTNLLQYVRMPLLTPRYITD [P6T]	2.13
REESLCNLLQYVRMPLLTPRYITD [P6C]	2.05
REESLDNLLQYVRMPLLTPRYITD [P6D]	2.51
REESLNNLLQYVRMPLLTPRYITD [P6N]	2.45
REESLHNLLQYVRMPLLTPRYITD [P6H]	2.13
REESLWNLLQYVRMPLLTPRYITD [P6W]	2.11
REESLRNLLQYVRMPLLTPRYITD [P6R]	2.59
REESLGNLLQYVRMPLLTPRYITD [P6G]	2.28
REESLINLLQYVRMPLLTPRYITD [P6I]	1.95
REESLKNLLQYVRMPLLTPRYITD [P6K]	1.71
REESLMNLLQYVRMPLLTPRYITD [P6M]	2.11
REESLFNLLQYVRMPLLTPRYITD [P6F]	1.93
REESLENLLQYVRMPLLTPRYITD [P6E]	2.15
REESLLNLLQYVRMPLLTPRYITD [P6L]	2
REESLANLLQYVRMPLLTPRYITD [P6A]	2.66
REESLYNLLQYVRMPLLTPRYITD [P6Y]	2.58
REHSLPNLLQYVRMPLLTPRYITD [E3H]	2.23
REWSLPNLLQYVRMPLLTPRYITD [E3W]	2.02
REKSLPNLLQYVRMPLLTPRYITD [E3K]	2.78
REFSLPNLLQYVRMPLLTPRYITD [E3F]	1.95
REGSLPNLLQYVRMPLLTPRYITD [E3G]	2.56

Variant	protein stability index
REDSLPNLLQYVRMPLLTPRYITD [E3D]	2.2
REMSLPNLLQYVRMPLLTPRYITD [E3M]	1.9
RETSLPNLLQYVRMPLLTPRYITD [E3T]	2.67
REQSLPNLLQYVRMPLLTPRYITD [E3Q]	2.72
RESSLPNLLQYVRMPLLTPRYITD [E3S]	2.14
RELSLPNLLQYVRMPLLTPRYITD [E3L]	2.11
RECSLPNLLQYVRMPLLTPRYITD [E3C]	2.5
REPSLPNLLQYVRMPLLTPRYITD [E3P]	2.19
REASLPNLLQYVRMPLLTPRYITD [E3A]	2.54
RERSLPNLLQYVRMPLLTPRYITD [E3R]	2.83
REVSLPNLLQYVRMPLLTPRYITD [E3V]	2.45
REISLPNLLQYVRMPLLTPRYITD [E3I]	2.02
REYSLPNLLQYVRMPLLTPRYITD [E3Y]	1.71
RENSLPNLLQYVRMPLLTPRYITD [E3N]	2.42
REESLPALLQYVRMPLLTPRYITD [N7A]	2.64
TEESLPNLLQYVRMPLLTPRYITD [R1T]	2.19
WEESLPNLLQYVRMPLLTPRYITD [R1W]	1.61
YEESLPNLLQYVRMPLLTPRYITD [R1Y]	1.82
DEESLPNLLQYVRMPLLTPRYITD [R1D]	2.63
HEESLPNLLQYVRMPLLTPRYITD [R1H]	2.18
SEESLPNLLQYVRMPLLTPRYITD [R1S]	2.7
KEESLPNLLQYVRMPLLTPRYITD [R1K]	2.52
NEESLPNLLQYVRMPLLTPRYITD [R1N]	2.72
EEESLPNLLQYVRMPLLTPRYITD [R1E]	2.8

Variant	protein stability index
GEESLPNLLQYVRMPLLTPRYITD [R1G]	2.23
CEESLPNLLQYVRMPLLTPRYITD [R1C]	1.96
MEESLPNLLQYVRMPLLTPRYITD [R1M]	2.25
LEESLPNLLQYVRMPLLTPRYITD [R1L]	2.83
IEESLPNLLQYVRMPLLTPRYITD [R1I]	1.83
QEESLPNLLQYVRMPLLTPRYITD [R1Q]	2.31
AEESLPNLLQYVRMPLLTPRYITD [R1A]	2.23
PEESLPNLLQYVRMPLLTPRYITD [R1P]	2.16
VEESLPNLLQYVRMPLLTPRYITD [R1V]	2.35
FEESLPNLLQYVRMPLLTPRYITD [R1F]	2.43
REEALPNLLQYVRMPLLTPRYITD [S4A]	2.65
REEKLPNLLQYVRMPLLTPRYITD [S4K]	2.41
REENLPNLLQYVRMPLLTPRYITD [S4N]	1.93
REEWLPNLLQYVRMPLLTPRYITD [S4W]	1.9
REEDLPNLLQYVRMPLLTPRYITD [S4D]	2.56
REERLPNLLQYVRMPLLTPRYITD [S4R]	2.5
REEYLPNLLQYVRMPLLTPRYITD [S4Y]	2.45
REELLPNLLQYVRMPLLTPRYITD [S4L]	1.89
REETLPNLLQYVRMPLLTPRYITD [S4T]	2.34
REEMLPNLLQYVRMPLLTPRYITD [S4M]	2.21
REEHLPNLLQYVRMPLLTPRYITD [S4H]	2.51
REEQLPNLLQYVRMPLLTPRYITD [S4Q]	2.51
REECLPNLLQYVRMPLLTPRYITD [S4C]	2.71
REEILPNLLQYVRMPLLTPRYITD [S4I]	2.16

Variant	protein stability index
REEFLPNLLQYVRMPLLTPRYITD [S4F]	2.15
REEELPNLLQYVRMPLLTPRYITD [S4E]	2.72
REEPLPNLLQYVRMPLLTPRYITD [S4P]	2.79
REEVLPNLLQYVRMPLLTPRYITD [S4V]	1.82
REEGLPNLLQYVRMPLLTPRYITD [S4G]	2.69
REESHPNLLQYVRMPLLTPRYITD [L5H]	2.51
REESVPNLLQYVRMPLLTPRYITD [L5V]	2.59
REESPPNLLQYVRMPLLTPRYITD [L5P]	2.75
REESQPNLLQYVRMPLLTPRYITD [L5Q]	2.81
REESCPNLLQYVRMPLLTPRYITD [L5C]	2.79
REESIPNLLQYVRMPLLTPRYITD [L5I]	1.83
REESSPNLLQYVRMPLLTPRYITD [L5S]	2.8
REESRPNLLQYVRMPLLTPRYITD [L5R]	2.52
REESMPNLLQYVRMPLLTPRYITD [L5M]	2.9
REESYPNLLQYVRMPLLTPRYITD [L5Y]	2.61
REESDPNLLQYVRMPLLTPRYITD [L5D]	3.15
REESFPNLLQYVRMPLLTPRYITD [L5F]	2.16
REESWPNLLQYVRMPLLTPRYITD [L5W]	2.21
REESKPNLLQYVRMPLLTPRYITD [L5K]	2.65
REESAPNLLQYVRMPLLTPRYITD [L5A]	3.47
REESEPNLLQYVRMPLLTPRYITD [L5E]	3.4
REESTPNLLQYVRMPLLTPRYITD [L5T]	2.79
